The values below come from patent publication US20260056186A1 (JIANGSU HENGRUI PHARMACEUTICALS, published 2026).

Assay [1] has as its target T1, BAFF (Sino biological, 10056-HNCH) (UniProt Q9Y275 134-285, biotinylated in the blocking ELISA (site not stated)).
T1 construct: also called BLyS
The assay can be described thus: competition ELISA: fusion protein pre-mixed with biotinylated BAFF, added to coated BAFF-R. On the procedure: The above TACI-Fc fusion proteins' function of blocking the binding of BAFF to BAFF-R was further assessed as follows: The receptor protein was diluted with a pH 7.4 PBS (BasalMedia, B320) buffer to 2 μg/mL, and the resulting dilution was added to a 96-well microplate (Corning, 3590) at 100 μL/well. The plate was incubated overnight at 4° C. After the liquid was discarded, 1% Casein blocking solution (Thermo, 37528) was added at 200 μL/well for blocking, and the plate was incubated at 37° C. for 2 h. After the blocking, the blocking solution was discarded, and the plate was washed 3 times with a PBST buffer (pH 7.4 PBS containing 0.1% tween-20) and set aside for later use. A biotinylated ligand protein at a fixed concentration was mixed with a serially diluted antibody or fusion protein, and the mixture was pre-incubated at 37° C. for 30 min and then added to the blocked microplate. The plate was incubated at 37° C. for 1.5 h. After the incubation, the plate was washed 3 times with PBST, and streptavidin-HRP (Invitrogen, 434323, diluted in a 1:4000 ratio) was added at 100 μL/well. The plate was incubated at 37° C. for 1 h. The supernatant was removed. […] The absorbance at 450 nm was measured using a microplate reader. Curves for the inhibition of the binding of the ligand to the receptor were fitted using software, and IC₅₀ values were calculated. […]
A general note: In an ELISA, binding on a coated surface is turned into a signal by an enzyme label.

Assay [2] addresses BAFF (PeproTech, Cat: 310-13) (UniProt Q9Y275 134-285). The assay can be described thus: ELISA, plate coated with BAFF 1 ug/mL, HRP anti-human Fc, OD450. On the procedure: BAFF (PeproTech, Cat: 310-13) was diluted to 1 μg/mL with PBS, and a 96-well plate was coated with the dilution overnight at 4° C. The plate was washed with PBST and blocked with Blocking Buffer (PBST containing 1% BSA) at 37° C. for 1 h. The plate was tapped. The test antibodies were diluted with Blocking Buffer. Incubation was performed at 37° C. for 1.5 h. The plate was washed with PBST. An HRP-mouse anti-human Fc antibody (GenScript, Cat: A01854-200) was diluted with Blocking Buffer. Incubation was performed at 37° C. for 40 min. The plate was washed with PBST. 100 μL of TMB substrate solution (Biopanda, Cat: TMB-S-003) was added, and color development was performed at 37° C. for 3 min. 100 μL of ELISA stop solution (Solarbio, Cat: C1058) was added. OD450 was measured.

B1: Telitacicept (RCT-18) (Fc fusion)
chain: SRVDQEERFPQGLWTGVAMRSCPEEQYWDPLLGTCMSCKTICNHQSQRTCAAFCRSLSCRKEQGKFYDHLLRDCISCASICGQHPKQCAYFCENKLRSPVNLPPELDKTHTCPPCPAPEAEGAPSVFLFPPKPKDTLMISRTPEVTCVVVDVSHEDPEVKFNWYVDGVEVHNAKTKPREEQYNSTYRVVSVLTVLHQDWLNGKEYKCKVSNKALPSSIEKTISKAKGQPREPQVYTLPPSRDELTKNQVSLTCLVKGFYPSDIAVEWESNGQPENNYKTTPPVLDSDGSFFLYSKLTVDKSRWQQGNVFSCSVMHEALHNHYTQKSLSLSPGK
notes: Positive control TACI-Fc; also called RC18
With B1, the IC50 in assay [1] was 27.5 nM. Further, in assay [2], the “EC50 (read off the curve)” value was about 0.2 nM.

As a reminder, the IC50 is the midpoint of a concentration-inhibition curve. The EC50 (read off the curve) is the concentration that produces a half-maximal response.
